Reference: the DeepSol protein solubility set

Assay: soluble on expression in E. coli; label from the status in PepcDB or PDB records

Row | Sequence | soluble on expression in E. coli
1 | MGSDKIHHHHHHMQKLGIFIYSLGSGGAERVVATLLPILSLKFEVHLILMNDKISYEIPECQIHFLECSKPSENPILKFLKLPFLALKYKKLCRNLGIDTEFVFLNRPNYIALMARMFGNKTRLVINECTTPSVMYMKNNFNSLVNKFLISLLYPKADLILPNSKGNLEDLVQNFSISPKKCEILYNAIDLENIGQKALEDIALKDKFILSVGRLDKGKNHALLIRAYARLKTDLKLVILGEGVLKDELLALIKELNLEEKVLLLGFDNNPYKYMAKCEFFAFASVFEGFSNVLIESLACSCAVVCTDHKSGARELFGDDEFGLLVEVDNENSMFQGLKTMLEDDKLRKAYKNKAKTRAKAFDKVKIARDALKYLLG | not soluble
2 | MPMPSEKTLVIIPTYNELENLPLITGRVRKANPNVDILIVDDNSPDGTGEAADALAASDSHIKVLHREGKGGLCGAYVAGFQWGLERDYTVLCEMDADGSHAPEQLHLLLAQVDNGADLVIGSRYVPGGKVVNWPKNRWVLSKGGNIYISLALGAGLSDMTAGYRAFRREVLETVDLNELSNAGYIFQVDMAWRVIQLGFDVREVPITFTEREIGESKLDGSFVKDSLLEVTKWGIHHRKEQITNLYTESSRLIRHEISSFRKKHLI | not soluble
3 | MASVELSADVPISPQDTWDHVSELSELGEWLVIHEGWRSELPDQLGEGVQIVGVARAMGMRNRVTWRVTKWDPPHEVAMTGSGKGGTKYGVTLTVRPTKGGSALGLRLELGGRALFGPLGSAAARAVKGDVEKSLKQFAELYGLEHHHHHH | not soluble
4 | MQHLDLQVVRKALKWSVGGERVWFCTVLTTYGSAPRAPGSLLAVNASGEWIGSLSGGCVEDDFLERVAAGGFPDPAVIVRYGEGDDPNSNIRLPCGGILDVLVENLAPDCDVQAHLRELESALLGQRRLLREVELGSGARSLRDDSSHGPRAERDGECVRLRVGAAQRLLLAGYSSVAHACAEFGKGLGFEVILCDPREEALRGVVLEGIEIRRELPSLFIADGGCHADTAVVALTHDPKIDDLAMLEAVRTEAFYIGVMGSRATSEKRFERLRRIGGLGDAELARIHAPIGLNLGSKTPAEIALAVLADILRIRNGIPRERL | not soluble
5 | MRLITFAGHYFSRIIIMINRALVRSRVLQQAYVYYHRDDADIQSAEKELLNSLEQTYDLYLYYLLLVPELTRLHAEALEANKNKHLATEKDKNPNLRMVRNRLAEKIESCRPLWVRAEQNALNWRSEEAFLRRLLKKIHLSETFTRYMRSDATDDFEADRLFWNELMRDIILPDEELAEVMEEQSIFWDNQIQLIEKIETEEAPDIEEVEQSVRQAVADGNYQTIRQENAPIEIVKEFVLKTIRRIEQDTDPSAILLPAYKEKDDAVFGTTLLRNAIINGQEYRH | not soluble
6 | MSLTELLNNLEYKKEQLKKLLLRIHEGESVEKLKEEFRTVLSNISPLEIPLIEQELVKEGISARDIAKMCDLHVELFREAVKGTGEVEEKDLPEGHPLKTLYQENKEIMKDAEMLNLYAKTLATTKDERMREEILGVLEEIVSSLRMVGFTHYNREEMLIFPYIERRGLTVIATVLWTKHDEIRAMIKQLAELLRKREEMPWEEFVEKFKAKAGEVAFALSDMVFRENNIFYPTLKALLSEGEWKAIKMQEDEIGYYKVKPPEWDPGEDVKPLHPWEINPELNVEQLLTLPKEVQQALRGQPLEFDKTQLKREEDIDLGTGYLNIEELKAIFEALPVDVTFIDKDDRVRFFSPGERIFTRTPSVLGRPVQLCHPPKSVYVVNKILKAFKEGRKKEATFWLRLREKYVYIKYVPLFNEKGEYIGTLEMTMDIAPYKKIEGEKRLLDWRDEGHHHHHH | soluble
7 | MGQMFNPPHPGETLREDVLPAFNLTVTEAANQLGVSRVTLSRVLNGTSAISPEMALRIEEWLGVENGGRADLWLGMQTSYDLWKARERVHQQPLSVRSVKHKSTEMALR | not soluble
8 | MGSDKIHHHHHHMKAGLRIGLVGPLPPPSGGMANQTLQLAGLLREEHVEVELIQVNRPYRPGWIGRFKGIRAGFRLLSYVSQLWLSAGRVQLFHVMANSGWSWHLFAAPAIWIARLRGKPVIINYRGGEADSFFDKAFSWVKPSLSRANAIIVPSGFLEGVFGKRGFSASIVPNIIDLSRFGAGMRSDTSTVEAGPDSPHIIVTRNLEPIYDNETALRAFHIVRRSFPAAKLTLAGSGPERHTLEQLAFALGIGGAVTFTGRVDNEGMAAIYRSASVMLNPSLADNMPISILEALASGVPVVSTNVGGVPYLVEHEKNALLVPARDPQAMANAVLRLLNDAARTRRLIEAGMECVQRYTWPNVRVPLFRVYEQVLAAPDRSC | not soluble
9 | MSLQLLAPGANTALANAHCSWNLESGTSSVFGEYAAVALLAVNEKRQPMGDPALLHQEQSWMEWSGGPQDVGCTLKLDRLPAGSDRVLLMVYVYAAMGPIRDFASLRLKVDANIEHRLDLRDNGEAAIIIGEFYKRNDQWKFRALSEGSAYGLSAFGRKIGLEVDDRHPRRPSGGSGGPAGGPRHESATGTAFVVGPAHVMTCAHVIEDMGVFYINSLEGRYKAEAVVIDRRNDIALLRVQGAPPLSAVTFREGQGCEPGDTVAVLGYPLASISGGGLQVTQGGISGLFGLHNDASLFQFTAPIQPGSSGSPLFDNGGAVIGMVTSTVPDGQNMNFAVKSALLMSFLQACRIDAPHARAERSYTTTEISRTFQSSLWLVEASREGHHHHHH | soluble
10 | MGSDKIHHHHHHMNLRQLEYFVTLSETLSFTKTAQKFFISQTAVTKQIKLLENTLDTKLFNRNKHYVELTPAGNVFLMEAKAILLRVEEATERVHLTTIGFVGLLRIGFIKGYEKTAFSDLIFQLYNKYPNISITFFRGTESELYEKVLNSELDIVFNSVKPKNIDKTLEMKLIDKYPLKVVVHPTHPLAARKSVRFEELRGETIFKYNDGQDIEVTLLMVSANMGIAVMPSYCVRYLSQSQNLMIIAVENNNFYVDIAAVWNKENNNPALLRVLQIIKEAEQ | not soluble
11 | MAGDYSYDAVKREYVIGSDMTSYAHEVFAAAKPMDIRHNDLPQPDSVIDVTVSTTEWPEGDSNYPINPKLVFTNHSNVAIPGGSTIEFLMPTSSGDIVKDWSGAGLKVIESGHTGSNFSVNGEKKLFHKVAVTLRSTETIPAGGEYSVDMVYYTPVSGVANGVRFIVGNETVGLKKDFPTLPALEHHHHHH | soluble
12 | MLANQIKYVILHLTQSIIEYSMANLNCIKAVLAEKGIMSKWLAKTLKKDPATVSKWCNNHSQPDLYTLARIAEVLDVDIHKLICHTKEE | not soluble
13 | MTLALLGSSLPAASLQAGETGISVSASSTVTYNPDTAEFTTTVESTDKDAAKAAAKVATLWSSLQQALRKVGISSADASSTSYTVSPEWEWNSANGKREFKGYKARHVVRVVVRDLGKLGGAIDAVVGAGSGTVDGLSYSSSRFESLRTQALENAVKSAKHDAEVMARAAGGRLGQPLELQYGQPQSDYPVMRFAMAEGFKAAPAPTDVEPGEQKLTVSVSSRWQFVSGSGKLEHHHHHH | not soluble
14 | MGSDKIHHHHHHMMKALILAGGSGERFWPLSTPETPKQFLKLFGNKSLMRWTFERVLEEMDPKDVIVVTHKDYVERTKKELPELPDENIIAEPMKKNTAPACFIGTKLADDDEPVLVLPADHRIPDTKKFWKTVKKALDALEKYDGLFTFGIVPTRPETGYGYIEIGEELEEGVHKVAQFREKPDLETAKKFVESGRFLWNSGMFLWKAREFIEEVKVCEPSIYENLKDVDPRNFEELKKAYEKVPSISVDYAVMEKSKKVRVVKADFEWSDVGNWSSVREIEGYTEESDEVILVDSDRVFVKTHNKPIAVVGLSDVIVIDTPNGILICKEEYAQKVREVVKKLFRTS | not soluble
15 | MAHHHHHHMRTHKTHAYIQAHCLCDFYLTYCAGWVGAIKADGSGQPREPSNGVFGCVRDYIFHQMLDAVHGSSKVFFCDAHAAAVLNCSLRLHDLMERGVTLLEDLMAPRQPIMSSFTPYFFAVEDACVSCVVEDWMAKVPYRDVHIFALGCAPHRSPQQLPRSRIAPRVMRFKEMMLDFTATEALVFHPNMQNGLPQLLSPLSPPT | not soluble
16 | GQRELTLFVHGFNSTQTETAYRAAQLAHDIEMPGSLMVYSWPSKGHALGYAYDADSTVFARDGLETVLRRLGEQRIDRLAVVAHSMGSFLLMEALRQIEIATPGWSARHLDGVILISPDLDLDVFRSQMRRIKTVPQPFVVMASEKDNVLNLSRHLRGKQSSERLGQIGSAALITDLPVAVIDTSQFSDEAESGHFIAATSPTLLAMIAEARNMTDLFEAGNVPL | not soluble
